Source: paper PMC9961482

Target: Encapsulin–SpyTag (Myxococcus xanthus | Streptococcus pyogenes) (UniProt Q1D6H4)
Assay: reducing SDS-PAGE + SEC

Encapsulin–SpyTag (Myxococcus xanthus | Streptococcus pyogenes), sequence (Q1D6H4 1-287, tags left off): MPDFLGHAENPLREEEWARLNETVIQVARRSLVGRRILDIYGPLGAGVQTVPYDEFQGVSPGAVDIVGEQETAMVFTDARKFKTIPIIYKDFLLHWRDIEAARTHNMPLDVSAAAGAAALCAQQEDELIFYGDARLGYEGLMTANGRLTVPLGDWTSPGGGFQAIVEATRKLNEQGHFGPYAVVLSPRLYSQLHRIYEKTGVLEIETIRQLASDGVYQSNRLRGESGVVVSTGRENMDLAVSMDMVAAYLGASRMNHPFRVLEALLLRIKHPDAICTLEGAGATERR

Substance: mRBD–SpyCatcher (from UniProt P0DTC2 332-532)
- per cent conjugation: 90 per cent
